Assay results from patent US20120058906A1.

Experiments:
[1] = target: rHuman Erythropoietin R/Fc Chimera, CF (R&D Systems Cat#963-ER) (human) (UniProt P19235); test: MSD ECL multi-spot plate; Fab 920 nM; blank spot 4082
[2] = target: rHuman EGF R/Fc Chimera, CF (R&D Systems Cat#344-ER) (human) (UniProt P00533); test: as above
[3] = target: rHuman CD44/Fc Chimera, CF (R&D Systems Cat#3660-CD) (human) (UniProt P16070); test: as above
[4] = target: rHuman IGF-1 sR (IGF-1 sR), CF (R&D Systems Cat#391-GR) (human) (UniProt P08069); test: as above
[5] = target: rHuman ErbB2/Fc Chimera, CF (R&D Systems Cat#1129-ER) (human) (UniProt P04626); test: as above
[6] = target: rHuman HGF R/c-MET/Fc Chimera, CF (R&D Systems Cat#358-MT/CF) (human) (UniProt P08581); test: as above
[7] = target: rHuman Erythropoietin R/Fc Chimera, CF (R&D Systems Cat#963-ER) (human) (UniProt P19235); test: MSD ECL multi-spot plate; Fab 230 nM; blank spot 1656
[8] = target: rHuman EGF R/Fc Chimera, CF (R&D Systems Cat#344-ER) (human) (UniProt P00533); test: as above
[9] = target: rHuman CD44/Fc Chimera, CF (R&D Systems Cat#3660-CD) (human) (UniProt P16070); test: as above
[10] = target: rHuman IGF-1 sR (IGF-1 sR), CF (R&D Systems Cat#391-GR) (human) (UniProt P08069); test: as above
[11] = target: rHuman ErbB2/Fc Chimera, CF (R&D Systems Cat#1129-ER) (human) (UniProt P04626); test: as above
[12] = target: rHuman HGF R/c-MET/Fc Chimera, CF (R&D Systems Cat#358-MT/CF) (human) (UniProt P08581); test: as above
[13] = target: rHuman EGF R/Fc Chimera, CF (R&D Systems Cat#344-ER) (human) (UniProt P00533); test: MSD ECL multi-spot assay, antigen spotted on plate, Fab 0.93 uM; blank spot 4760
[14] = target: rHuman Erythropoietin R/Fc Chimera, CF (R&D Systems Cat#963-ER) (human) (UniProt P19235); test: MSD ECL multi-spot plate; Fab 14.375 nM; blank spot 738
[15] = target: rHuman EGF R/Fc Chimera, CF (R&D Systems Cat#344-ER) (human) (UniProt P00533); test: as above
[16] = target: rHuman CD44/Fc Chimera, CF (R&D Systems Cat#3660-CD) (human) (UniProt P16070); test: as above
[17] = target: rHuman IGF-1 sR (IGF-1 sR), CF (R&D Systems Cat#391-GR) (human) (UniProt P08069); test: as above
[18] = target: rHuman ErbB2/Fc Chimera, CF (R&D Systems Cat#1129-ER) (human) (UniProt P04626); test: as above
[19] = target: rHuman HGF R/c-MET/Fc Chimera, CF (R&D Systems Cat#358-MT/CF) (human) (UniProt P08581); test: as above
[20] = target: rHuman Erythropoietin R/Fc Chimera, CF (R&D Systems Cat#963-ER) (human) (UniProt P19235); test: MSD ECL multi-spot plate; Fab 57.5 nM; blank spot 954
[21] = target: rHuman EGF R/Fc Chimera, CF (R&D Systems Cat#344-ER) (human) (UniProt P00533); test: as above
[22] = target: rHuman CD44/Fc Chimera, CF (R&D Systems Cat#3660-CD) (human) (UniProt P16070); test: as above
[23] = target: rHuman IGF-1 sR (IGF-1 sR), CF (R&D Systems Cat#391-GR) (human) (UniProt P08069); test: as above
[24] = target: rHuman ErbB2/Fc Chimera, CF (R&D Systems Cat#1129-ER) (human) (UniProt P04626); test: as above
[25] = target: rHuman HGF R/c-MET/Fc Chimera, CF (R&D Systems Cat#358-MT/CF) (human) (UniProt P08581); test: as above

rHuman Erythropoietin R/Fc Chimera, CF (R&D Systems Cat#963-ER) (human), sequence (P19235 25-250, change not shown): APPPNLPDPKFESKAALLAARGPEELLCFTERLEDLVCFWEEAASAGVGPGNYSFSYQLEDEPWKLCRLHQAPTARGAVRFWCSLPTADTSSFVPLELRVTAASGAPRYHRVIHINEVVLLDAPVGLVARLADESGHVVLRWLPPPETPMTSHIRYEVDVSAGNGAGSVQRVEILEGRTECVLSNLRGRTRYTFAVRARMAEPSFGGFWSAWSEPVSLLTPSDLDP

Substance: Fab VH1-46_IGHD3-10*01_IGHJ4*01 & L12_IGKJ1*01
- ECL signal [1]: 16400 ECL signal
- ECL signal [2]: 13400 ECL signal
- ECL signal [3]: 9700 ECL signal
- ECL signal [4]: 10200 ECL signal
- ECL signal [5]: 10900 ECL signal
- ECL signal [6]: 10700 ECL signal
- ECL signal [7]: 6950 ECL signal
- ECL signal [8]: 5720 ECL signal
- ECL signal [9]: 3820 ECL signal
- ECL signal [10]: 4760 ECL signal
- ECL signal [11]: 4080 ECL signal
- ECL signal [12]: 3930 ECL signal
- ECL signal [13]: 15600
- ECL signal [14]: 2720 ECL signal
- ECL signal [15]: 2670 ECL signal
- ECL signal [16]: 1490 ECL signal
- ECL signal [17]: 1750 ECL signal
- ECL signal [18]: 1590 ECL signal
- ECL signal [19]: 1600 ECL signal
- ECL signal [20]: 4040 ECL signal
- ECL signal [21]: 3860 ECL signal
- ECL signal [22]: 2310 ECL signal
- ECL signal [23]: 2830 ECL signal
- ECL signal [24]: 2450 ECL signal
- ECL signal [25]: 2300 ECL signal
